Article PMC2724277

B1: nutL spacer (ssRNA)
RNA: AAAAUUAA
B2: nutR boxA5-spacer (ssRNA)
RNA: CUCUCUUACACAUUCCA
B3: nutR boxB (structured_RNA)
RNA: AGCCCUGAAAAAGGGC
B4: nutR boxA16-spacer (ssRNA)
RNA: CGCUAUUACACAUUCCA
B5: nutL boxA-spacer (ssRNA)
RNA: CGCUCUUAAAAAUUAA
B6: nutL boxA-spacer (mut) (ssRNA)
RNA: CGCUCUUAAAAAGGAA
B7: rrn spacer (III) (ssRNA)
RNA: ACAAUUUA
B8: rrn cac-boxA-spacer (ssRNA)
RNA: CACUGCUCUUUAACAAUUUA
B9: nutR spacer (ssRNA)
RNA: CACAUUCCA
B10: nutR boxA (same sequence as nutL boxA) (ssRNA)
RNA: CGCUCUUA
B11: nutR boxA-spacer (ssRNA)
RNA: CGCUCUUACACAUUCCA

biological target: NusA-SKK (Escherichia coli, UniProt P0AFF6 132-348); assay: fluorescence anisotropy
Sequence (P0AFF6 132-348): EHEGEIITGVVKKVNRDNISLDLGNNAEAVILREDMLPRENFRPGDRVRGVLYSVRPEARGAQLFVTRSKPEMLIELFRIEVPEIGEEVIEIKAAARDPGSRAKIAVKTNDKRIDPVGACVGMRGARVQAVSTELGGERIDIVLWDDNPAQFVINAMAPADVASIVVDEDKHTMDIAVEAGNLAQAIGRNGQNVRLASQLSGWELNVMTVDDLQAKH

Going from B1 to B2, the Kd rises from 24 ± 2.2 µM to 124 ± 7 µM (5.2-fold).

B4 and B5 are within 1.5-fold of each other in Kd: 106 ± 4 µM for the first, 71 ± 4 µM for the second.

Compared with B7, B8 is 5.1-fold lower in Kd: 71 ± 3.3 µM for the first, 14 ± 0.2 µM for the second. The second binds more tightly here.

B9 and B11 are within error of each other in Kd: 137 ± 17 µM for the first, 126 ± 4 µM for the second.

B3: no binding.
B6: no binding.
B10: no binding.
